Results taken from paper PMC10748205.

Tests used:
Experiment in all cases: two-hybrid
[1] = biological target: Gt-3 ORF3 KISS (hepatitis E virus genotype 3 (Kernow-C1 p6))
[2] = biological target: Gt-1 ORF3 MAPPIT (hepatitis E virus genotype 1 (Sar-55))
[3] = biological target: Gt-1 ORF3 KISS (hepatitis E virus genotype 1 (Sar-55))

B1: SHANK-Associated RH Domain Interactor (natural protein)
chain: MAPPAGGAAAAASDLGSAAVLLAVHAAVRPLGAGPDAEAQLRRLQLSADPERPGRFRLELLGAGPGAVNLEWPLESVSYTIRGPTQHELQPPPGGPGTLSLHFLNPQEAQRWAVLVRGATVEGQNGSKSNSPPALGPEACPVSLPSPPEASTLKGPPPEADLPRSPGNLTEREELAGSLARAIAGGDEKGAAQVAAVLAQHRVALSVQLQEACFPPGPIRLQVTLEDAASAASAASSAHVALQVHPHCTVAALQEQVFSELGFPPAVQRWVIGRCLCVPERSLASYGVRQDGDPAFLYLLSAPREAPATGPSPQHPQKMDGELGRLFPPSLGLPPGPQPAASSLPSPLQPSWSCPSCTFINAPDRPGCEMCSTQRPCTWDPLAAAST
B1 was tested, and the BP/BIP [1] was 25.4, the BP/PIB [1] was 101 and the Value BP (bait-prey luciferase value) [1] was 188000. For the same binder, the BP/BIP [2] was 61.2, the BP/PIB [2] was 69.9 and the Value BP (bait-prey fold induction) [2] was 82.1. The BP/BIP [3] was 42.2, the BP/PIB [3] was 429 and the Value BP (bait-prey luciferase value) [3] was 796000.
